As a reminder, the Kd is the concentration at which binding is half-saturated. Usually IC50 stands for the midpoint of a concentration-inhibition curve.

One test deals with HLA-A*02:50. Description: IEDB peptide-MHC binding, purified MHC/competitive/fluorescence; filed as Kd, often an IC50 or EC50 that approximates it; ≥ and ≤ were set here for values at or beyond the usual limits of such assays. The conditions noted are these: source organism: Salmonella enterica subsp. enterica serovar Typhi.
The next test deals with HLA-A*02:16. The test is described as follows: IEDB peptide-MHC binding, purified MHC/direct/fluorescence; filed as Kd, often an IC50 or EC50 that approximates it; ≥ and ≤ were set here for values at or beyond the usual limits of such assays. As to conditions: source organism: Salmonella enterica subsp. enterica serovar Typhimurium str. LT2.
For a further test, the target named is HLA-B*08:01. The description is as above. As to conditions: source organism: Salmonella enterica subsp. enterica serovar Typhimurium str. LT2.
Test [1] addresses HLA-B*15:01. Described as above. The conditions noted are these: source organism: Salmonella enterica.
Another test deals with HLA-A*11:01. The description is as above. The conditions noted are these: source organism: Salmonella enterica.
Test [2] addresses HLA-A*02:01. The test is described as above. As to conditions: source organism: Salmonella enterica.
Test [3] deals with HLA-B*27:05. Described as above. The conditions noted are these: source organism: Salmonella enterica.
In another test the target is HLA-A*69:01. The test is described as above. As to conditions: source organism: Salmonella enterica.
For test [4], the target named is HLA-B*58:01. Described as above. As to conditions: source organism: Salmonella enterica.
Test [5] has as its target HLA-A*01:01. Described as above. As to conditions: source organism: Salmonella enterica.
The next test concerns the target HLA-C*14:02. Described as above. The conditions noted are these: source organism: Salmonella enterica subsp. enterica serovar Typhi str. CT18.
Test [6] addresses HLA-A*03:01. The test is described as above. The conditions noted are these: source organism: Salmonella enterica.
The target in another test is HLA-B*40:01. Described as above. As to conditions: source organism: Salmonella enterica.
Another test deals with HLA-B*07:02. The test is described as above. As to conditions: source organism: Salmonella enterica.
In a further test the target is HLA-B*44:02. The test is described as above. The conditions noted are these: source organism: Salmonella enterica.
Another test addresses HLA-A*26:01. Description: IEDB peptide-MHC binding, purified MHC/competitive/fluorescence; filed as Kd, often an IC50 or EC50 that approximates it; ≥ and ≤ were set here for values at or beyond the usual limits of such assays. The conditions noted are these: source organism: Human immunodeficiency virus 1.
The target in a further test is HLA-A*02:06. The description is as above. As to conditions: source organism: Human immunodeficiency virus 1.
A further test concerns the target HLA-B*18:01. The test is described as above. The conditions noted are these: source organism: Human immunodeficiency virus 1.
For a further test, the target named is HLA-B*39:01. The test is described as above. The conditions noted are these: source organism: Human immunodeficiency virus 1.
Test [7] concerns the target HLA-A*02:01. The test is described as above. The conditions noted are these: source organism: Human immunodeficiency virus 1.
The next test deals with HLA-B*08:02. The description is as above. The conditions noted are these: source organism: Human immunodeficiency virus 1.
A further test deals with HLA-A*02:03. The description is as above. The conditions noted are these: source organism: Human immunodeficiency virus 1.
A further test concerns the target HLA-A*68:02. The description is as above. The conditions noted are these: source organism: Human immunodeficiency virus 1.
The next test addresses HLA-B*40:02. Description: IEDB peptide-MHC binding, cellular MHC/competitive/fluorescence; ≥ and ≤ were set here for values at or beyond the usual limits of such assays. As to conditions: source organism: Homo sapiens.
Another test addresses HLA-A*24:02. The test is described as follows: IEDB peptide-MHC binding, purified MHC/competitive/radioactivity; ≥ and ≤ were set here for values at or beyond the usual limits of such assays. As to conditions: source organism: Homo sapiens.
The target in a further test is HLA-A*68:23. Description: IEDB peptide-MHC binding, purified MHC/competitive/fluorescence; filed as Kd, often an IC50 or EC50 that approximates it; ≥ and ≤ were set here for values at or beyond the usual limits of such assays. The conditions noted are these: source organism: Yersinia pseudotuberculosis IP 31758.
The target of a further test is HLA-C*04:01. The description is as above. As to conditions: source organism: Yersinia pseudotuberculosis IP 31758.
Test [8] addresses HLA-B*15:01. The description is as above. The conditions noted are these: source organism: Yersinia pseudotuberculosis IP 31758.
In another test the target is HLA-B*83:01. The test is described as above. The conditions noted are these: source organism: Yersinia pseudotuberculosis IP 31758.
The next test has as its target HLA-B*45:06. Described as above. As to conditions: source organism: Yersinia pseudotuberculosis IP 31758.
Another test deals with HLA-B*15:42. The test is described as above. As to conditions: source organism: Yersinia pseudotuberculosis IP 31758.
In test [9] the target is HLA-B*58:01. The description is as above. As to conditions: source organism: Yersinia pseudotuberculosis IP 31758.
Test [10] addresses HLA-A*01:01. The test is described as above. As to conditions: source organism: Yersinia pseudotuberculosis IP 31758.
The target of test [11] is HLA-A*03:01. The description is as above. The conditions noted are these: source organism: Yersinia pseudotuberculosis IP 31758.
The target of a further test is HLA-A*02:07. The test is described as follows: IEDB peptide-MHC binding, purified MHC/competitive/radioactivity; filed as Kd, often an IC50 or EC50 that approximates it; ≥ and ≤ were set here for values at or beyond the usual limits of such assays. The conditions noted are these: source organism: Hepatitis C virus (isolate Taiwan).
A further test addresses HLA-A*02:05. Described as above. As to conditions: source organism: Hepatitis C virus (isolate Taiwan).
In test [12] the target is HLA-B*27:05. Description: IEDB peptide-MHC binding, purified MHC/competitive/radioactivity; ≥ and ≤ were set here for values at or beyond the usual limits of such assays. The conditions noted are these: source organism: Human papillomavirus 16.

Take AMMWRIAQL: the Kd was no more than 0.1 nM with HLA-A*02:50; no more than 1 nM with HLA-A*02:16; 612 nM with HLA-B*08:01; 171 nM with HLA-B*15:01 [1]; no less than 20000 nM with HLA-A*11:01; 26.2 nM with HLA-A*02:01 [2]. In addition, the Kd with HLA-B*27:05 [3] is 348 nM; in the test with HLA-A*69:01 it was 2000 nM; with HLA-B*58:01 [4], no less than 20000 nM; with HLA-A*01:01 [5], no less than 20000 nM; with HLA-C*14:02 it was 118 nM; in the test with HLA-A*03:01 [6] it was no less than 20000 nM. Besides, the Kd was 2280 nM in the test with HLA-B*40:01, no less than 20000 nM with HLA-B*07:02 and no less than 20000 nM with HLA-B*44:02.

With IEVKDTKEAL, the Kd in the test with HLA-A*26:01 was no less than 20000 nM; with HLA-A*02:06, 574 nM; with HLA-B*18:01, 314 nM; with HLA-B*39:01, no less than 20000 nM; with HLA-A*02:01 [7], 681 nM; in the test with HLA-B*08:02 it was no less than 20000 nM. Besides, the Kd is no less than 20000 nM in the test with HLA-A*02:03 and 766 nM with HLA-A*68:02.

Take KEHSLQVSP: in the test with HLA-B*40:02, the IC50 stood at 1900 nM.

Consider KYAGESFPGI, for which the IC50 in the test with HLA-A*24:02 is 838 nM.

Turning to RQIRMTSTI, the Kd is 427 nM in the test with HLA-A*68:23; no less than 5000 nM with HLA-C*04:01; 163 nM with HLA-B*15:01 [8]; no less than 5000 nM with HLA-B*83:01; no less than 5000 nM with HLA-B*45:06; no less than 5000 nM with HLA-B*15:42. Besides, the Kd is 617 nM in the test with HLA-B*58:01 [9], 3000 nM with HLA-A*01:01 [10] and no less than 20000 nM with HLA-A*03:01 [11].

Regarding YLVAYQATV, the Kd in the test with HLA-A*02:07 came out at 2300 nM; with HLA-A*02:05, 8.5 nM.

Consider YRHYCYSL, for which the IC50 with HLA-B*27:05 [12] came to 12 nM.

(Values after the Immune Epitope Database (IEDB).)
